# Experimental data taken from US20250099579A1 (MARENGO THERAPEUTICS, published 2025).
# T1: human IL2R trimeric complex (human, UniProt P01589 22-213; P14784 27-239; P31785 23-262)
# T1 construct: also called Human IL-2Rαβγ
# T1 sequence (looked up) 1: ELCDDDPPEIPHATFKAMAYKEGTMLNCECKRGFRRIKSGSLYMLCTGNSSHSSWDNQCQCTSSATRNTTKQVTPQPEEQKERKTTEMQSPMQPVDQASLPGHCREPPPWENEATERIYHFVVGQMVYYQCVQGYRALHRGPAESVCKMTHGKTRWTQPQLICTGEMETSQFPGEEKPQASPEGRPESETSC
# T1 sequence (looked up) 2: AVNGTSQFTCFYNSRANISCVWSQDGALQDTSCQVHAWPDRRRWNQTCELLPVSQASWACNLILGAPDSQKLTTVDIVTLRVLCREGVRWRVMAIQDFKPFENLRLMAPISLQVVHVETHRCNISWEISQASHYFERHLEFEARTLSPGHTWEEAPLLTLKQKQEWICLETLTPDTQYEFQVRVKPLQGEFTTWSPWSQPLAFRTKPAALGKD
# T1 sequence (looked up) 3: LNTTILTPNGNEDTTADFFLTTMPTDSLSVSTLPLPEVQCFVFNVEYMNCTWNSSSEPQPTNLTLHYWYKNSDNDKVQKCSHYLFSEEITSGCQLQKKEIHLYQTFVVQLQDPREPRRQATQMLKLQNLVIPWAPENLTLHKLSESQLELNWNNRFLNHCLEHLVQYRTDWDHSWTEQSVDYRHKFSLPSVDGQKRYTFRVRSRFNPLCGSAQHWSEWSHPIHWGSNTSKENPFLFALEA
# T2: human IL2R beta-gamma (human, UniProt P14784 27-239; P31785 23-262)
# T2 construct: Soluble heterodimer used as analyte; also called Human IL-2Rβγ; IL-2Rβγ heterodimer
# T2 sequence (looked up) 1: T1 sequence (looked up) 2
# T2 sequence (looked up) 2: T1 sequence (looked up) 3
# T3: cynomolgus IL2Ra (cynomolgus, UniProt H6WS54 22-213)
# T3 construct: also called Cyno IL-2Rα
# T3 sequence: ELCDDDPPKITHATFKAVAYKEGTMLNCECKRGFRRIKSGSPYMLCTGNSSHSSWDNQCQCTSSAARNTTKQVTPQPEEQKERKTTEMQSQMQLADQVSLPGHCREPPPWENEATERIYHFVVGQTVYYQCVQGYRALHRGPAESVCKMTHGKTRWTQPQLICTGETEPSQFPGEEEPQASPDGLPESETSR
# T4: Human IL2Ra (human, UniProt P01589 22-213, limits assumed)
# T4 construct: also called Human IL-2Rα; CD25
# T4 sequence (looked up): T1 sequence (looked up) 1
# B1: BKM0186 (bispecific antibody, human IgG1, kappa, N297A)
# heavy: QVQLVQSGAEVKKPGSSVKVSCKASGHDFRLTYIHWVRQAPGQGLEWMGRVSAGSGNVKYNEKFKGRVTITADTSTSTAYMELSSLRSEDTAVYYCAVSYYSYDVLDYWGQGTTVTVSSASTKGPSVFPLAPSSKSTSGGTAALGCLVKDYFPEPVTVSWNSGALTSGVHTFPAVLQSSGLYSLSSVVTVPSSSLGTQTYICNVNHKPSNTKVDKRVEPKSCDKTHTCPPCPAPELLGGPSVFLFPPKPKDTLMISRTPEVTCVVVDVSHEDPEVKFNWYVDGVEVHNAKTKPREEQYASTYRVVSVLTVLHQDWLNGKEYKCKVSNKALPAPIEKTISKAKGQPREPQVCTLPPSREEMTKNQVSLSCAVKGFYPSDIAVEWESNGQPENNYKTTPPVLDSDGSFFLVSKLTVDKSRWQQGNVFSCSVMHEALHNHYTQKSLSLSPGK
# chain: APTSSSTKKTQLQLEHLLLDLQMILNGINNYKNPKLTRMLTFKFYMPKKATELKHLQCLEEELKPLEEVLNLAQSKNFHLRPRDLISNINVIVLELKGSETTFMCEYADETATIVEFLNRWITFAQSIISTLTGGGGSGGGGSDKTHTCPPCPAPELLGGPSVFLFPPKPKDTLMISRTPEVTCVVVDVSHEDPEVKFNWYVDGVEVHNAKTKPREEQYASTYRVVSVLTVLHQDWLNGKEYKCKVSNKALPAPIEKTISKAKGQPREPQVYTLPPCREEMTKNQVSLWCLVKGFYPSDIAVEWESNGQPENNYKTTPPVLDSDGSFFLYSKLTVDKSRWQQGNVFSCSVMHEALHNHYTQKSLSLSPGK
# light: DIQMTQSPSFLSASVGDRVTITCKASQNVADRVVWHQQKPGKAPKALIYSSSHRYKGVPSRFSGSGSGTEFTLTISSLQPEDFATYFCQQFKSYPLTFGQGTKLEIKRTVAAPSVFIFPPSDEQLKSGTASVVCLLNNFYPREAKVQWKVDNALQSGNSQESVTEQDSKDSTYSLSSTLTLSKADYEKHKVYACEVTHQGLSSPVTKSFNRGEC
# notes: also called TCRVβ/IL-2 (C125A) bispecific; IL2xTCRVβ
# What was measured:
# [1] = biological target: T1, human IL2R trimeric complex; assay: SPR (Biacore T200), BKM0186 captured via anti-human Fc on CM5 chip, receptor complex as analyte, 1:1 Langmuir model
# Method: (§1) All interactions between bispecifics and relevant receptors were analyzed by Surface Plasmon Resonance (SPR) on a Biacore T200 instrument.
# (§2) BKM0186 at 2 μg/mL was immobilized on a Series S CM5 chip via human Fe antibody to 80 RU. Human IL2Ra and cynomolgus IL2Ra were diluted to 500 nM, human IL2R beta-gamma and cynomolgus IL2R beta-gamma were diluted to 125 nM, and human IL2R trimeric complex was diluted to 50 nM and then serially diluted two-fold in 1×HBS-EP+ buffer for a total of 10 concentrations. Multi cycle kinetics was run where the chip is regenerated with 3 M Magnesium Chloride between each cycle followed by a new injection of BKM0186. An association time of 120 seconds and a dissociation time of 150 seconds for human and cyno IL2Ra, 300 seconds for human and cyno IL2R beta-gamma, and 900 seconds for the human IL2R trimeric complex was done at 30 uL/min. This assay was run in 1×HBS-EP+ Buffer pH 7.4 and 25 C. Sensorgrams were corrected by double reference subtraction using the reference flow cell not treated with BKM0186 and a blank cycle of buffer alone. BIAevaluation software was used for data analysis and the data were fit using a 1:1 Langmuir binding model for calculation of the KD value (Koff/Kon). Due to faster off rates observed for human and cyno IL2Ra binding, the data were fit using a steady state model where equilibrium binding response is analyzed.
# cynomolgus Vβ6 TCR = biological target: T5, cynomolgus Vβ6 TCR (cynomolgus); assay: SPR (Biacore T200), BKM0186 captured via anti-human Fc on CM5 chip (80 RU), TCR as analyte, multi cycle kinetics, 1:1 Langmuir model, 25 C
# T5 construct: also called Cyno TCRVβ
# Method: as §1
# (§3) BKM0186 at 2 μg/mL was immobilized on a Series S CM5 chip via human Fe antibody to 80 RU. Human Vβ6 TCR and cynomolgus Vβ6 TCR were diluted to 250 nM and then serially diluted two-fold in 1×HBS-EP+ buffer for a total of 10 concentrations. Multi cycle kinetics was done with an association time of 120 seconds and a dissociation time of 600 seconds, for human Vβ6 TCR and 300 seconds for cynomolgus Vβ6 TCR at 30 uL/min. This assay was run in 1×HBS-EP+ Buffer pH 7.4 at 25 C. Sensorgrams were corrected by reference subtraction using the reference flow cell not treated with BKM0186. BIAevaluation software was used for data analysis and the data were fit using a 1:1 Langmuir binding model for calculation of the KD value (Koff/Kₒₙ).
# Human Vβ6 TCR = biological target: T6, Human Vβ6 TCR (human); assay: as above
# T6 construct: The method text calls it Human Vβ6 TCR; also called Human TCRVβ
# Method: as §1, §3
# Vβ6 TCR on human T cells [2] = biological target: Vβ6 TCR on human T cells (human); assay: cell-based or functional assay
# [3] = biological target: T7, cynomolgus IL2R beta-gamma (cynomolgus); assay: SPR (Biacore T200), BKM0186 captured via anti-human Fc on CM5 chip, receptor as analyte, 1:1 Langmuir model
# T7 construct: also called Cyno IL-2Rβγ
# Method: as §1, §2
# human IL2R beta-gamma = biological target: T2, human IL2R beta-gamma; assay: as above
# Method: as §1, §2
# Vβ6 TCR on human T cells [4] = biological target: T8, Vβ6 TCR on human T cells (human); assay: flow cytometry on sorted, activated TCRVβ6-5 positive CD25 hi human T cells (cells carry both Vβ6 TCR and CD25; co-operative binding)
# T8 construct: whole, on cells; Polyclonal T cells: CDR3 and the paired alpha chains vary; also called Vβ6 T cells; TCRVβ6-5
# Excerpt: Pan T-cells were isolated from PBMC's via negative selection on the autoMACS. T-cells were stained for TCRVβ6-5 and sorted on the Sony SH800 cell sorter into cell culture media. Sorted TCRVβ6-5 T-cells and non-sorted pan T-cells were activated and expanded using anti-CD3/CD28 beads followed by IL-2 culture. Portion of activated T-cells were allowed to rest for 3-days in serum-free media. Anti-CD25 FACS staining to confirm CD25 upregulation (from activation) and downmodulation (from resting). T-cells that represents TCRVβ6-5(pos) CD25(hi); TCRVβ6-5(pos) CD25(low); TCRVβ6-5(neg) CD25(hi); TCRVβ6-5(neg) CD25(low) are checked for BKM0186 construct binding.
# This avidity effect confirms that BKM0186 engages both Vβ6 and IL-2R via a cis binding mode.
# cynomolgus IL2Ra = biological target: T3, cynomolgus IL2Ra; assay: SPR (Biacore T200), BKM0186 captured via anti-human Fc on CM5 chip, receptor as analyte, steady state model
# Method: as §1, §2
# Human IL2Ra = biological target: T4, Human IL2Ra; assay: as above
# Method: as §1, §2
# T8 sequence (A0A0K0K1A5 22-114): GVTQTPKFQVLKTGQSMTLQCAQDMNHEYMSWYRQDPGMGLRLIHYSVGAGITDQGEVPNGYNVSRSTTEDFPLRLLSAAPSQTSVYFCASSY
binder,measurement,setting,value
B1,Kd,[1],0.1 nM
same,Kd,cynomolgus Vβ6 TCR,4.9 nM
same,Kd,Human Vβ6 TCR,1.7 nM
same,"EC50 of proliferation of Vβ6 T cells as a proportion of total CD4+ T cells (human PBMCs, 5 days)",Vβ6 TCR on human T cells [2],12 nM
same,"EC50 of proliferation of Vβ6 T cells as a proportion of total CD8+ T cells (human PBMCs, 5 days)",Vβ6 TCR on human T cells [2],6 nM
same,Kd,[3],3.3 nM
same,Kd,human IL2R beta-gamma,3.8 nM
same,EC50,Vβ6 TCR on human T cells [4],0.5 nM
same,Kd,cynomolgus IL2Ra,48 nM
same,Kd,Human IL2Ra,45 nM
